Columns and labels:
Type in all cases: cell-based, human
[1] = tested on: CD40, CD80, CD83, CD86, HLA-DR and CCR7 on DCs; assay: Expression of maturation markers by DCs
Method: Antibodies. Allophycocyanin-conjugated antibody to CCR-7 (150503) was purchased from R&D Systems. Unconjugated (10 μg/mL for blocking experiments) or phycoerythrin-conjugated antibody to OX40L (11C3.1) was from Biolegend. Blocking antibody to IL-4 (8F12; 10 μg/mL) was from Acris. Antibodies to human Vβ chains covering 70% of the repertoire (10Test Beta Mark; Beckman Coulter) were used according to the manufacturer's instructions. Fluorescein isothiocyanate-conjugated antibody to IL-12p35/IL-12p70 (B-T21) and IFNAR1 (EP899Y) were from Abcam. Phycoerythrine-conjugated antibodies to IL-12p40/IL-12p70 (C8.6), IL-10 (B-T10), CD203c (FR3-16A11) were from Miltenyi Biotec. Blocking antibody to HLA-DQ (SPVL3; 20 μg/mL) was from NeoMarkers. […]
(§1) Dendritic cell preparation and activation. […] Immature DCs were harvested on day 5 and matured using poly(I:C) at 5 μg/mL/10^6 DCs (Amersham) Secretion of IL-12p70, TNFα, IL-1β, IL-6, IL-8 and IL-10 was assessed on both immature and mature DCs using the Human Inflammatory Cytokine Cytometric Bead Array (BD Pharmingen).
We next evaluated whether DCs could be involved in the polarization of MMP-2-specific CD4^+ T cells.

[2] = tested on: phosphorylated (Y701) STAT1; assay: Intracellular staining of phosphorylated (Y701) STAT1 in DCs; settings: DCs preincubated 1 h (5 μg/mL) prior to poly(I:C), 3 h
Method: Immature DCs were incubated with MMP-2 (0.5 μg/mL or 5 μg/mL) and poly(I:C)-matured 1 h later. IL-12 levels were measured 16 h later. (A) Results are represented as a percentage of IL-12p70 levels, measured by CBA, produced when DCs were incubated with poly(I:C) only (n=11). (B) For intracellular staining of IL-12p35 and IL-12p40 chains, Brefeldin A was added 4 h after poly(I:C) activation and cells were stained after an additional 12 h incubation. Numbers in the upper right quadrants are the percentages of each population for a representative donor (n=3). (C,D) Immature DCs were incubated with MMP-2 for 1 h (5 μg/mL) before poly(I:C) maturation. Intracellular staining of phosphorylated (Y701) STAT1 (P-STAT1) was performed 3 h later. A representative donor (C) and results for all 3 donors (D) are shown. […] (E) Immature DCs were incubated with MMP-2 and poly(I:C)-matured 1 h later. IFNβ levels were measured by ELISA 16 h later. Results are represented as a percentage of IFNβ levels produced when DCs were incubated with poly(I:C) only (n=9). […] IFNAR1 protein expression was detected the next day by Western blot analysis using a rabbit monoclonal antibody. […]
Intracellular staining T-bet and GATA-3 expression was measured on resting T cells. […] Cytokine production by T cells was also assessed by intracellular staining T cells were stimulated with 2 μM overlapping peptides. […]

[3] = tested on: IL-12p70 production by DCs; assay: IL-12p70 production by poly(I:C)-matured DCs (CBA); settings: DCs stimulated with poly(I:C)
Method: Immature DCs were incubated with MMP-2 (0.5 μg/mL or 5 μg/mL) and poly(I:C)-matured 1 h later. IL-12 levels were measured 16 h later. (A) Results are represented as a percentage of IL-12p70 levels, measured by CBA, produced when DCs were incubated with poly(I:C) only (n=11). (B) For intracellular staining of IL-12p35 and IL-12p40 chains, Brefeldin A was added 4 h after poly(I:C) activation and cells were stained after an additional 12 h incubation. Numbers in the upper right quadrants are the percentages of each population for a representative donor (n=3). (C,D) Immature DCs were incubated with MMP-2 for 1 h (5 μg/mL) before poly(I:C) maturation. Intracellular staining of phosphorylated (Y701) STAT1 (P-STAT1) was performed 3 h later. A representative donor (C) and results for all 3 donors (D) are shown. […] (E) Immature DCs were incubated with MMP-2 and poly(I:C)-matured 1 h later. IFNβ levels were measured by ELISA 16 h later. Results are represented as a percentage of IFNβ levels produced when DCs were incubated with poly(I:C) only (n=9). (F,G) 10^6DCs/lane were treated with 0.1 μg MMP-2 or controls. Poly(I:C) was added 1 h later. IFNAR1 protein expression was detected the next day by Western blot analysis using a rabbit monoclonal antibody. A representative donor (F) and results for all 7 donors (G) are shown. (H) The rhIFNAR1 (5 μg; ≈110 kD) was incubated overnight with 0.3 μg MMP-2 before performing Western blot analysis for IFNAR1. The second band (around 90 kD) and the third band (25 kD) very likely correspond to either a degraded form of the protein still recognized by the antibody or a contaminant present in the commercial protein preparation and non-specifically recognized by the antibody. MMP-2 enzymatic activity was controlled (FIG. 13C-D). […]
as §1

OX40L expression on DCs = OX40L expression on DCs by surface staining; settings: immature and poly(I:C)-matured DCs, n=9, 24 h
Method: Immature and poly(I:C)-matured DCs were incubated with active or HI MMP-2 (0.5 μg/mL or 5 μg/mL) for 24 h. MMP-2 enzymatic activity was controlled (FIG. 13C-D). OX40L expression was assessed by surface staining (A) Histogram plots are shown for representative donor HD1228. Isotype control is represented in tinted gray. (B) Mean fluorescent intensities are represented for all 9 donors tested. […] P values≦0.0167 (*) were considered statistically significant using a Bonferroni correction for 3 comparisons for each DC type. See also FIG. 12.
Dendritic cell preparation and activation. PBMCs were purified from healthy—(HD) or cord blood—(CB) donors and plated at 40×10^6 cells/10 mL/dish in complete IMDM with 5% PHS. Cells were allowed to adhere for 2 h at 37° C. Non-adherent cells were removed. The monocyte-enriched fraction was supplemented with 100 UI/mL rhGMCSF and 300 UI/mL rhIL-4 (R&D Systems) on days 0, 2 and 4. Immature DCs were harvested on day 5 and matured using poly(I:C) at 5 μg/mL/10^6 DCs (Amersham) Secretion of IL-12p70, TNFα, IL-1β, IL-6, IL-8 and IL-10 was assessed on both immature and mature DCs using the Human Inflammatory Cytokine Cytometric Bead Array (BD Pharmingen).

B1: inactivated MMP-2: MMP-2 enzyme inactivated either by heating or by addition of the MMP-2 inhibitor III; mode not stated at the place (protein, listed as Homo sapiens)
chain: MEALMARGALTGPLRALCLLGCLLSHAAAAPSPIIKFPGDVAPKTDKELAVQYLNTFYGCPKESCNLFVLKDTLKKMQKFFGLPQTGDLDQNTIETMRKPRCGNPDVANYNFFPRKPKWDKNQITYRIIGYTPDLDPETVDDAFARAFQVWSDVTPLRFSRIHDGEADIMINFGRWEHGDGYPFDGKDGLLAHAFAPGTGVGGDSHFDDDELWTLGEGQVVRVKYGNADGEYCKFPFLFNGKEYNSCTDTGRSDGFLWCSTTYNFEKDGKYGFCPHEALFTMGGNAEGQPCKFPFRFQGTSYDSCTTEGRTDGYRWCGTTEDYDRDKKYGFCPETAMSTVGGNSEGAPCVFPFTFLGNKYESCTSAGRSDGKMWCATTANYDDDRKWGFCPDQGYSLFLVAAHEFGHAMGLEHSQDPGALMAPIYTYTKNFRLSQDDIKGIQELYGASPDIDLGTGPTPTLGPVTPEICKQDIVFDGIAQIRGEIFFFKDRFIWRTVTPRDKPMGPLLVATFWPELPEKIDAVYEAPQEEKAVFFAGNEYWIYSASTLERGYPKPLTSLGLPPDVQRVDAAFNWSKNKKTYIFAGDKFWRYNEVKKKMDPGFPKLIADAWNAIPDNLDAVVDLQGGGHSYFFKGAYYLKLENQSLKSVKFGSIKSDWLGC
modifications: heat or inhibitor inactivated
expression levels of maturation markers CD40, CD80, CD83, CD86, HLA-DR and CCR7 [1]: not significantly affected | STAT1 phosphorylation [2]: not | reduction in IL-12 [3]: not observed | OX40L expression on DCs (OX40L expression on DCs): significantly increased

Source: patent US9395368B2, “Methods, agents and peptides for inducing an immune response to matrix metalloproteinase-2 expressing tumors” (New York University, priority 2010, dated 2016)
